Reference: US20150284437A1 (Harvard, published 2015)
Non-standard residues stand in square brackets, D forms with d. No end group written: not given here. βAla = NCCC(=O)O

T1: N-terminally GST-tagged human β-catenin (human, UniProt P35222 1-781, limits assumed)
T1 construct: not shown: N-terminal GST tag
T1 sequence (looked up): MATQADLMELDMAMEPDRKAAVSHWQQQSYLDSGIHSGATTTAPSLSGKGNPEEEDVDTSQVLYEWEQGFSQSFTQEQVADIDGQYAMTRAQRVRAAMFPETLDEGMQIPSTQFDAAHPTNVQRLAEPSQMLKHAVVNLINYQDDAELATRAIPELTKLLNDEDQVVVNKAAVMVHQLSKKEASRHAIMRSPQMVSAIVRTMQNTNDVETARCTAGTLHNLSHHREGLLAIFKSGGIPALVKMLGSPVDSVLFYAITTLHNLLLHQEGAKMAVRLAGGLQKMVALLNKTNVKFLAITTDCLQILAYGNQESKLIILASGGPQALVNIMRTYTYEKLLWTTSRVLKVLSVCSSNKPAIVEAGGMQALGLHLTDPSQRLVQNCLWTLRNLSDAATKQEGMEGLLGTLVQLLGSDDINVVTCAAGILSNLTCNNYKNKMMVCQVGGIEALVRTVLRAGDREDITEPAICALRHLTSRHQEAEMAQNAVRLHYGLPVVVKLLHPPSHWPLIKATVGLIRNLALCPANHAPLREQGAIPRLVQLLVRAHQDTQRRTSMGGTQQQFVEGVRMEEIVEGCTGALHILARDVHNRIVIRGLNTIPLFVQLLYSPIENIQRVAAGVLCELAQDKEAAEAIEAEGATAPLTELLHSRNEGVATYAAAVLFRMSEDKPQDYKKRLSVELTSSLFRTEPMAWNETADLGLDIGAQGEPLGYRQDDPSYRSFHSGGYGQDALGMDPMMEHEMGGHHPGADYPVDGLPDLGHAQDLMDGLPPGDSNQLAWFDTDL


Target: T1, N-terminally GST-tagged human β-catenin
Experiment: fluorescence polarization; FITC-labeled peptide, GST-tagged human β-catenin
Method: Peptide sequences derived from TCF4 and Axin were synthesized and fluorescently labeled (FIG. 4b) and the affinity of both binding domains to β-catenin was assessed. The sequence of TCF4 was modified in such a way that the loop (9 amino acids; not visible in the crystal structure) between the extended region and the α-helix was replaced by two β-alanines (βAla). Labeled peptides and GST-tagged human β-catenin were used in a fluorescence polarization assay enabling the determination of the stability of these peptide/β-catenin complexes (FIG. 4c). […] Therefore, the Axin derivative was considered to be the most promising candidate for the hydrocarbon stapling approach.

Binder	Kd
DELISFKDEGEQE[βAla][βAla]ERDLADVKSSLVN (peptide, UniProt Q9NQB0 10-53, looked up, also: FITC label, place not given here, A synthetic fragment, not the whole protein) [TCF4 derived peptide, fluorescently labeled]	300 nM
ENPESILDEHVQRVM (also: FITC label, site not given here, also called axin-WT; Axin derived peptide) [Axin wild type sequence peptide ax-WT, fluorescently labeled]	~5000 nM
